T1: DF275A-1
T1 construct: Bivalent connector
T1 chain: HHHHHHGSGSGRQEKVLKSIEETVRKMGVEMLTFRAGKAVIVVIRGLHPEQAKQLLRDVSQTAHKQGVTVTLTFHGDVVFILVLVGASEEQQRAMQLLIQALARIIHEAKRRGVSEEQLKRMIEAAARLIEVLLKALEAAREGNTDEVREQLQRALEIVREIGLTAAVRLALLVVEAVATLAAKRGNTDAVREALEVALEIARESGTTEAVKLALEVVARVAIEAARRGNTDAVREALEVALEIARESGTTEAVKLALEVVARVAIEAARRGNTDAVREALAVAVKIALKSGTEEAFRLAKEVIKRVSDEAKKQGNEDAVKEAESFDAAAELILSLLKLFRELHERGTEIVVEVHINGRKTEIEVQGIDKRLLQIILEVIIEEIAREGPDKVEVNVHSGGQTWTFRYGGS

T2: TF3
T2 construct: Trivalent connector
T2 chain: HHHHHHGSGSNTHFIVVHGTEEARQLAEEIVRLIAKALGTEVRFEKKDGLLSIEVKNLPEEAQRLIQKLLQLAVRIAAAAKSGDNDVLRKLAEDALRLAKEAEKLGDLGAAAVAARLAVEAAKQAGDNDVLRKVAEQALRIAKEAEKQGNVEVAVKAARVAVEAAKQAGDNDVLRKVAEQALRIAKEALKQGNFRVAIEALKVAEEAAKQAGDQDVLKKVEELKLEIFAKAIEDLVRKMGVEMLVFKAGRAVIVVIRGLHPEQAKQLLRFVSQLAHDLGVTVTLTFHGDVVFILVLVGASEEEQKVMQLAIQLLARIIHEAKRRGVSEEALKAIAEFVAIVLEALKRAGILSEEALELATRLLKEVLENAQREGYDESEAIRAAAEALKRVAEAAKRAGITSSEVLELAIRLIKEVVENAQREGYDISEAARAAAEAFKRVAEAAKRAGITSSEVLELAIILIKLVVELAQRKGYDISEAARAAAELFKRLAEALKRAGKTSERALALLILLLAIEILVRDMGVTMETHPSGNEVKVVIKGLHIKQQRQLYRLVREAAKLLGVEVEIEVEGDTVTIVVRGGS

T3: DFB0
T3 construct: Bivalent connector
T3 chain: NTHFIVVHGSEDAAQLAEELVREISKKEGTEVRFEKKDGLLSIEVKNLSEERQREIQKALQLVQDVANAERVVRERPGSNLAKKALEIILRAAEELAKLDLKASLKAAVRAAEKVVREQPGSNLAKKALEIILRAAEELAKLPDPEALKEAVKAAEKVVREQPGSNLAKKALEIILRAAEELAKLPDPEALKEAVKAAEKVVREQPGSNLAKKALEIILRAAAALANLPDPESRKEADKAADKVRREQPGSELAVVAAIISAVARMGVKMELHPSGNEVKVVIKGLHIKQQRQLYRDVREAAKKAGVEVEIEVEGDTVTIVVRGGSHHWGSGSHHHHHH

T4: 101B62
T4 construct: also called LHD101B62
T4 chain: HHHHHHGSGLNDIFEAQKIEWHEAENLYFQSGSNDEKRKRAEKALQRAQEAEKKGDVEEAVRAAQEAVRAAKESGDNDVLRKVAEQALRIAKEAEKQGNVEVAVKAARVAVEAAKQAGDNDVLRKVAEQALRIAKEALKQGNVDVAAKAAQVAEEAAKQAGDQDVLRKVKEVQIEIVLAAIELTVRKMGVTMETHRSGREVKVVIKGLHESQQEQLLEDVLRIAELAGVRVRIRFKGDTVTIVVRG

B1: 275B (designed binder)
chain: GGSDVEWRYTNISEETQQKSAEFVLEIALRAGTGVTFTTRQGELQIQVHNLDELLAIAMLCYTLGLLLGDHRVQELAKRAVEAWERGDEERVKKLLIEALKRLVETAEEVVRERPGSNLAKLALEIILRAAEALARAEDPESLKEAVKAAEKVVREQPGSNLAKKALEIILRAAEELAKLPDPEALKEAVKAAEKVVREQPGSELAKKALEIIERAAEELKKSPDPEAQKEAKKAEQKVREERPGSGGSGSHHWGSGSHHHHHH
notes: also called LHD275 B; LHD275B
B2: 274B53 (designed binder)
chain: NTHFIVVHGSEDAAQLAEELVREISKKEGTEVRFEKKDGLLSIEVKNLSEERQREIQKALQLVQDVANAERVVRERPGSNLAKKALEIILRAAEELAKLDLKASLKAAVRAAEKVVREQPGSNLAKKALEIILRAAEELAKLPDPEALKEAVKAAEKVVREQPGSELAKKALEIIERAAEELKKSPDPEAQKEAKKAEQKVREESGSHHWGSGLNDIFEAQKIEWHEGSHHHHHH
notes: also called LHD274B DHR53 stop
B3: DFA-1 (designed binder)
chain: TTNFHLINGSEEARQLIEKAVRAISKKEGTEVHFEKSDGTLEIRVKNLHEKREREIKKVIELILEVAAAERIVRERPGSNLAKKALEIILRAAEELAKADVDAALEAAVRAAEKVVREQPGSNLAKKALEIILRAAEELAKLPDPEALKEAVKAAEKVVREQPGSNLAKKALEIILRAAAALANLPDPESRKEADKAADKVRREQPGSELAVVAAIISAVARMGVKMELHPSGNEVKVVIKGLHIKQQRQLYRDVREAAKKAGVEVEIEVEGDTVTIVVRGGSHHWGSGSHHHHHH
notes: Bivalent connector
B4: DFB-1 (designed binder)
chain: NTHFIVVHGSEDAAQLAEELVREISKKEGTEVRFEKKDGLLSIEVKNLSEERQREIQKALQLVQDVANAERVVRERPGSNLAKKALEIILRAAEELAKLDLKASLKAAVRAAEKVVREQPGSNLAKKALEIILRAAEELAKLPDPEALKEAVKAAEKVVREQPGSNLAKKALEIILRAAAALANLPDPESRKEADKAADKVRREQPGSELAVVAAIISAVARMGVKMELHPSGNEVKVVIKGLHIKQQRQLYRDVREAAKKAGVEVEIEVEGDTVTIVVRGGSHHWGSGSHHHHHH
notes: Bivalent connector
B5: LHD29 chainB (designed binder)
chain: SSIFLLSNVSEEARQRAEEYVRRISKKEGTEVRFEKDDGFLTIEVKNLSEERLREIAEYLWRVAV
notes: also called LHD29B; 29B
B6: LHD101 chainB (designed binder)
chain: GRQEKVLKSIEETVRKMGVTMETHRSGNEVKVVIKGLHESQQEQLLEDVLRTAEKQGVRVRIRFKGDTVTIVVRE
notes: also called LHD101B
B7: RingA (designed binder)
chain: GSSIFLLSNVSEDAAQLAEELVREISKKEGTEVRFEKDDGFLTIEVKNLSEERLREIAKALQLIVDVANAERVVRERPGSNLAKKALEIILRAAEELAKLDLKASLKAAVRAALKVVAEQPGSNLAKKALEIIQRAAEELAKLPDPEAQKEAQLAAELVRAAELAKSPDPEDLKEAVRLAEEVVRERPGSNLAKAALAIILRAAEELAKLPDPEALKEAVKAAEKVVREQPGSNLAKKALEIILRAAAALANLPDPESRKEADKAADKVRREQPGSELAVVAAIISAVARMGVKMELHPSGNEVKVVIKGLHIKQQRQLYRDVREAAKKAGVEVEIEVEGDTVTIVVRGGGSWGLEHHHHHH
notes: Component of the two-component C4 ring (four copies of each in the ring); also called 29B_53_101A
B8: RingB (designed binder)
chain: GTWQWVLINISEEARQLIEKAVRAISKKEGTEVHFEKDDGVLHIRVKNLHEKRAREIHKVAKLILEVAAAERIVRERPGSNLAKKALEIILRAAEELAKADVDAALEAAVRAAEKVVREQPGSNLAKKAMEIILRAAEELAKLPDPEAQKEAAKAIARRVAAKVEELKRSGTSEDEIAEEVAREISEVIRTLKESGSSYEVICECVARIVAEIVEALKRSGTSEDEIAEIVARVISEVIRTLKESGSSYEVICECVARIVAEIVEALKRSGTSEEEIAEIVARVIQEVIRTLKESGSSYEVIRECLRRILEEVIEALKRSGVDSSEIVLIIIKIAVAVMGVTMEEHRSGNEVKVVIKGLHESQQEELLELVLRAAELAGVRVRIRFKGDTVTIVVRGGGSLEHHHHHH
notes: Component of the two-component C4 ring (four copies of each in the ring); also called 29A_53_4_101B

Columns and labels:
[1] = biological target: the molecule itself; assay: SEC titration of the protomer alone at several injection concentrations (Superdex 200, normalised A230); self-association
[2] = biological target: T1, DF275A-1; assay: SEC of partial and full mixtures followed at 473 nm (GFP on component C) and negative-stain EM; components as named for the hexamer in the legend of FIG. 16C and in Table 6
Procedure: (§1) Complexes and individual components were diluted in 20 mM Tris pH 8.0, 100 mM NaCl. After o/n equilibration of the mixtures at room temperature or 4 degrees C., 500 ul of sample was injected onto a Superdex™ 200 10/300 increase GL (dimers, linear assemblies) or Superose™ 6 increase 10/300 GL (symmetric assemblies) (all columns from GE healthcare) using the absorbance at 230 nm or 473 nm (for GFP tagged components) as read-out. Dimers were mixed at monomer concentrations of 5 μM or higher. Trimer and ABCD tetramer mixtures contained 5 μM of the bivalent connector, and 7.5 μM of each terminal cap (lower absolute concentrations with the same ratios were used for some trimers). ABCA tetramer mixtures contained 5 μM per bivalent connector and 15 μM terminal cap. The hexamer mixture contained 3 μM of components C and D, 3.6 μM of B and E, and 4.4 μM of A and F. The branched assembly shown in FIG. 4A contained 2.8 μM of the trivalent connector and 4 μM of each cap. For the exchange experiment shown in FIG. 5A, the ABC trimer was preincubated at concentrations of 6 μM B and 9 μM each of A and C. C′ was then added to reach a final concentration of 2 μM B, 3 μM each of A and C, and 6 μM C′.
SEC peak fractions were concentrated prior to negative stain EM screening. Samples were then immediately diluted 5 to 150 times in TBS buffer (25 mM Tris pH 8.0, 25 mM NaCl) depending on sample concentration. […]

[3] = biological target: T2, TF3; assay: SEC of the trivalent connector TF3, its three caps and the full mixture, with SDS-PAGE of the fractions; components named in the legend
[4] = biological target: B3; assay: SEC of mixed components; trimer listed in Table 6
Procedure: as §1

[5] = biological target: the molecule itself; assay: SEC titration (Superdex 200, normalised A230) of 274B53 and 29B53 alone; self-association
[6] = biological target: B4; assay: SEC of mixed components; linear tetramer listed in Table 6, neighbours in the chain
Procedure: as §1

[7] = biological target: T3, DFB0; assay: as above
Procedure: as §1

[8] = biological target: T4, 101B62; assay: as above
Procedure: as §1

[9] = biological target: the molecule itself; assay: BLI conditions (self-association)
[10] = biological target: the molecule itself; assay: SEC titration (self-association)
[11] = biological target: the molecule itself; assay: SEC and native MS (self-association)

## B1
[1]
  binding result: binds
[2]
  binding result: binds
[3]
  binding result: binds

## B2
[4]
  binding result: binds
[5]
  binding result: binds

## B3
[6]
  binding result: binds
[7]
  binding result: binds

## B4
[8]
  binding result: binds

## B5
[9]
  binding result: binds

## B6
[10]
  binding result: no binding (tested: above 100 µM)

## B7
[11]
  binding result: no binding

## B8
[11]
  binding result: no binding
